# Assay results published in patent publication US20140087995A1 (published 2014).
# Numbered stars: 1 amine (or outer) side, 2 acyl side, 3 side chain; on linkers, the order of the positions; unused ones are H or OH. Bridge positions count the residues as written; N and C are the ends. * marks the point of attachment. C20 diacid = O=C(O)CCCCCCCCCCCCCCCCCCC(=O)*; γGlu = O=C(O)[C@H](CCC(=O)[*:2])N[*:1]
# T1: human calcitonin receptor (human, UniProt P30988 25-474)
# T1 construct: whole, on cells; Used as membranes prepared from the transfected cells (Assay VII); also called hCTR; hCT
# T1 sequence (looked up): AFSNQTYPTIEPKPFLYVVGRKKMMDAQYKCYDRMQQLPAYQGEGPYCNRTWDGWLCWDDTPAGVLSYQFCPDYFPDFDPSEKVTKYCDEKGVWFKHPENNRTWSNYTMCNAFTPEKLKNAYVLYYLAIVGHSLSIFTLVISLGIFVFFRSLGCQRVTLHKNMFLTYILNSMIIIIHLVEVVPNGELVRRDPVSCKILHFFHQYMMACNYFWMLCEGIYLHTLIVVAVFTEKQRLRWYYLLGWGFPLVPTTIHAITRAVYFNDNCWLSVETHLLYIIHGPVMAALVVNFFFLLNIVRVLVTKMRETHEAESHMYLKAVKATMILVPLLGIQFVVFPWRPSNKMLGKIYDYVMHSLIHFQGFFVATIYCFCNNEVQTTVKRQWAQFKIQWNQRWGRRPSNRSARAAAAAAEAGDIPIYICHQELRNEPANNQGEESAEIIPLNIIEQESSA
# Biological target: T1, human calcitonin receptor
# Assay: ratio IC50 human calcitonin receptor / IC50 human amylin receptor (Assays VII and V)
# Protocol: The resulting pellet was resuspended, homogenized and centrifuged (20.000 rpm, 15 min) in a buffer containing 20 mM Na-HEPES and 0.1 mM EDTA (pH 7.4, buffer 2). The resulting pellet was resuspended in buffer 2 and protein concentration was measured (BCA protein Assay, Pierce). The homogenate was kept cold during the whole procedure. The membranes were kept at −80° C. until use. The assay was performed in a 384 well Optiplate (PerkinElmer) in a total volume of 40 ul. Membranes were mixed with SPA beads. Final concentration of membranes 35 ng/μL final and SPA beads was 0.05 mg/well. Test-compounds were dissolved in DMSO and further diluted in assay buffer (50 mM Hepes, pH 7.4, 1 mM CaCl2, 5 mM MgCl₂, 0.1% OA and 0.02% Tween20). […] The final mixture was incubated with shaking at 400 rpm for 120 min at 25° C. prior to centrifugation (1500 rpm, 10 min). Samples were analyzed on TopCounter™ (Packard). The IC₅₀ was calculated using (one site binding competition analysis) GraphPad Prism5 as a measure of receptor affinity.
# Membranes were prepared in the following way; the cells were rinsed with PBS and incubated with Versene for approximately 5 min before harvesting. The cells were flushed with PBS and the cell-suspension was centrifuged for 5 min at 1000 rpm. Cells were homogenized (Ultrathurrax) in a buffer containing 20 mM Na-HEPES and 10 mM EDTA (pH 7.4) and centrifuged at 20.000 rpm for 15 min. The resulting pellet was resuspended, homogenized and centrifuged (20.000 rpm, 15 min) in a buffer containing 20 mM Na-HEPES and 0.1 mM EDTA (pH 7.4, buffer 2). The resulting pellet was resuspended in buffer 2 and protein concentration was measured (BCA protein Assay, Pierce). The homogenate was kept cold during the whole procedure. The membranes were kept at −80° C. until use. Assay was performed in a 384 well Optiplate (PerkinElmer) in a total volume of 40 ul. Membranes were mixed with SPA beads.
binder,measurement,value
"{C20 diacid-γGlu-γGlu}-KCNTATCATQRLAEFLRHSSPNFGAIPSSTNVGSNTY-NH2 (disulfide 2-7; SMILES CC[C@H](C)[C@H](NC(=O)[C@H](C)NC(=O)CNC(=O)[C@H](Cc1ccccc1)NC(=O)[C@H](CC(N)=O)NC(=O)[C@@H]1CCCN1C(=O)[C@H](CO)NC(=O)[C@H](CO)NC(=O)[C@H](Cc1c[nH]cn1)NC(=O)[C@H](CCCNC(=N)N)NC(=O)[C@H](CC(C)C)NC(=O)[C@H](Cc1ccccc1)NC(=O)[C@H](CCC(=O)O)NC(=O)[C@H](C)NC(=O)[C@H](CC(C)C)NC(=O)[C@H](CCCNC(=N)N)NC(=O)[C@H](CCC(N)=O)NC(=O)[C@@H](NC(=O)[C@H](C)NC(=O)[C@@H]1CSSC[C@H](NC(=O)[C@H](CCCCN)NC(=O)CC[C@H](NC(=O)CC[C@H](NC(=O)CCCCCCCCCCCCCCCCCCC(=O)O)C(=O)O)C(=O)O)C(=O)N[C@@H](CC(N)=O)C(=O)N[C@@H]([C@@H](C)O)C(=O)N[C@@H](C)C(=O)N[C@@H]([C@@H](C)O)C(=O)N1)[C@@H](C)O)C(=O)N1CCC[C@H]1C(=O)N[C@@H](CO)C(=O)N[C@@H](CO)C(=O)N[C@H](C(=O)N[C@@H](CC(N)=O)C(=O)N[C@H](C(=O)NCC(=O)N[C@@H](CO)C(=O)N[C@@H](CC(N)=O)C(=O)N[C@H](C(=O)N[C@@H](Cc1ccc(O)cc1)C(N)=O)[C@@H](C)O)C(C)C)[C@@H](C)O, Derivative of human amylin; also called compound 15)",Ratio hCT/hAmylin binding,26
